{
  "source": "paper PMC10979513",
  "about": "(Progress in neurobiology, 2024)",
  "biological_target": "T1, recombinant μ4 C-terminal domain (human, residues 160–453) (human, UniProt O00189 160-453)",
  "T1 sequence (looked up)": "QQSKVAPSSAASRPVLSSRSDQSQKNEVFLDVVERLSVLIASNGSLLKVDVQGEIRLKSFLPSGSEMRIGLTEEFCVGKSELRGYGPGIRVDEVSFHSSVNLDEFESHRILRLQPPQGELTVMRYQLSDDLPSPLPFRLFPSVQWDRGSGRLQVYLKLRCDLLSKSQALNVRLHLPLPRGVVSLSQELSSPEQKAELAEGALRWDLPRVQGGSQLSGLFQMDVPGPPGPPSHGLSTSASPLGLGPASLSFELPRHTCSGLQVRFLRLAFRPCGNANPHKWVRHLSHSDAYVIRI",
  "test": "ITC",
  "data": [
    {"binder": "YPAAISSFDR", "note": "[ApoER2 peptide YPAAISSFDR]", "values": [
      {"measurement": "Kd", "result": 26.2, "unit": "µM"}
    ]}
  ]
}
